# Results taken from US9827216B2, “Nutritional support to prevent and/or mitigate bone marrow toxicity from a cancerous tumor” (Nestec S.A., priority 2008, dated 2017).
# B1: lactoferrin: diet with 25 mg/day of lactoferrin (protein, UniProt P24627 20-708, looked up)
# Lactotransferrin: APRKNVRWCTISQPEWFKCRRWQWRMKKLGAPSITCVRRAFALECIRAIAEKKADAVTLDGGMVFEAGRDPYKLRPVAAEIYGTKESPQTHYYAVAVVKKGSNFQLDQLQGRKSCHTGLGRSAGWIIPMGILRPYLSWTESLEPLQGAVAKFFSASCVPCIDRQAYPNLCQLCKGEGENQCACSSREPYFGYSGAFKCLQDGAGDVAFVKETTVFENLPEKADRDQYELLCLNNSRAPVDAFKECHLAQVPSHAVVARSVDGKEDLIWKLLSKAQEKFGKNKSRSFQLFGSPPGQRDLLFKDSALGFLRIPSKVDSALYLGSRYLTTLKNLRETAEEVKARYTRVVWCAVGPEEQKKCQQWSQQSGQNVTCATASTTDDCIVLVLKGEADALNLDGGYIYTAGKCGLVPVLAENRKSSKHSSLDCVLRPTEGYLAVAVVKKANEGLTWNSLKDKKSCHTAVDRTAGWNIPMGLIVNQTGSCAFDEFFSQSCAPGADPKSRLCALCAGDDQGLDKCVPNSKEKYYGYTGAFRCLAEDVGDVAFVKNDTVWENTNGESTADWAKNLNREDFRLLCLDGTRKPVTEAQSCHLAVAPNHAVVSRSDRAAHVKQVLLHQQALFGKNGKNCPDKFCLFKSETKNLLFNDNTECLAKLGGRPTYEEYLGTEYVTAIANLKKCSTSPLLEACAFLTR
# Columns and labels:
# [1] = test system: red blood cell, white blood cell and immune cell populations; test: Haematological evaluation and flow cytometric analysis, test diets with chemotherapy (Example 2); format: in vivo, mice
# Procedure: The animals were distributed into 7 different group diets. There was a control group that received the diet AIN 93 for adult rodents (maintenance). Test diets were administered in doses appropriate to the animal model: (a) Ctrl diet were supplemented with 1% (w/w) L-arginine, (b) 25% of the protein was replaced by glutamine, (c) 1% (w/w) L-citrulline, (d) 1 g/Kg body weight with active hexose correlated compound, (e) 20 mg/day of RNA nucleotides and (f) 25 mg/day of lactoferrin. […] Control animals without chemotherapeutic treatment were run in parallel for all tested diets. Body weight was assessed every two days. Blood samples were obtained at day 2, 4 and 10 after the chemo-treatment and at sacrifice (14 or 28 days). An autopsy was performed and tumor mass was assessed.
# immune cells = test: Nutritional intervention on immune cells in tumor burdened animals with and without chemotherapy (FIG. 11); format: in vivo
# From the text: FIG. 11 illustrates a graph of the effect of nutritional intervention on immune cells in tumor burdened animals with and without chemotherapy in accordance with an embodiment of the present disclosure.
molecule,measurement,setting,value
B1,Global lymphocyte population,"[1]; following chemotherapy, supplemented diets",less depressed
same,leukocytic increase (white blood cell counts),"[1]; oxaliplatin treated animals, supplemented diet 25 mg/day",tended to be higher
same,toxicity (immune cells),immune cells; chemotherapy treated group as compared to the control (FIG. 11),less toxicity
same,immune cell population / concentration,immune cells; during the second phase (tumor-induced toxicity),increase in their immune cell population
